B1: CB017.5L (antibody, V domains shown)
VH: QVQLVESGGGVVQPGRSLRLSCSASGFTFSVYAMHWVRQAPGQGLEWVAIIWYDGSNKYYADSVKGRFTISRDNSKETLYLQMNSLRVEDTAVYYCARDPIVGHTRDGLDVWGQGTTVTVSS
VL: SYELTQPPSVSVSPGQTARVTCSGDAMAEQYTYWYQQKPGQAPVLIIFKDTERPSGIPERFSGSSSGTTVTLTISGVQTEDEADYYCQSTDSSGTSWVFGGGTKLTVL
B2: CR9505 (antibody, from another filing, V domains shown)
VH: EVQLQQSGPELVKPGTSVKISCKASGYSFTGFTMNWVKQSHGKNLEWFGLINPFNGNTGYNQKFKGKATLTVDKSSSTAFMELLSLTSEDSAVYYCARSGKSYDYEAWFTYWGQGTLVTVSA
VL: DIVMTQTTLSLPVSLGNQASISCRSSQTIVHTNGNTYLEWYLQKPGQSPKLLIYKVSNRFSGVPDRFSGSGSGTDFILNISRVEAEDLGVYYCFQGSHVPFTFGSGTKLEIKR
B3: CB030.1 (antibody, V domains shown)
VH: QVQLVQSGAEMKRPGSSVKVSCKASGGTFSTFAINWVRQAPGQGFEWMGGVIPGFDSANYAQKFQGRLTMSADESTSTVYMELSSLRSDDTAVYYCAGNSGYCSGDSCAPNWGPGTLVTVSS
VL: DIVMTQSPLSLPVTPGEPASISCRSSQSLVHSNGYSYLDWYLQKPGQSPQLLIYLGSNRPSGVPDRFSGSGSGTDFTLKISRVEAEDVGVYFCMQNLQTPTFGGGTKVEIK

Experiments:
[1] = molecular target: 长RSV G肽 (表15); experiment: ELISA, biotinylated peptide on avidin plate, mAb titrated
[2] = molecular target: RSV G中央保守域(CCD)生物素结合的肽 SYM-1706 (RSV); experiment: as above
[3] = molecular target: RSV株A/长(ATCC目录号VR-26)的G蛋白 (RSV A/长) (UniProt P20895); experiment: cell-based or functional assay

Binder	IC50 [1] [µg/mL]	IC50 [2] [µg/mL]	IC50 (空斑减少分析, 50%中和空斑形成) [3] [µg/mL]
B1	0.02	0.02	
B2			0.018
B3	0.02	0.02	

From patent publication CN111303278A
